Consider 3 molecules from US20080119424A1 (published 2008).

One test concerns the target T1, VP16-RARα LBD (UniProt P10276 154-462).
T1 construct: domain: LBD
T1 sequence: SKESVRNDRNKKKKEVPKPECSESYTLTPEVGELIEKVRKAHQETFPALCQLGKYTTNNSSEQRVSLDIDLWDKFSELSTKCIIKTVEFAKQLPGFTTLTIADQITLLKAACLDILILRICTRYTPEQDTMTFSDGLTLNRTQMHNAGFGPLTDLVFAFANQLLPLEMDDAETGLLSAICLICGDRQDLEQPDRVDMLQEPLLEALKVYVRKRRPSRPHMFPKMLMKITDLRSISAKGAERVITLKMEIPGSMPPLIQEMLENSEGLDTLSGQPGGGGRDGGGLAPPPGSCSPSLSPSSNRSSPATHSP
The experiment in a line: mammalian two-hybrid assay (luciferase) in the presence of RA.

In test [1] the target is T2, endogenous RARα (Retinoic Acid Receptor alpha) of mouse cells (mouse (endogenous in mouse embryonic …, UniProt P11416 1-462, limits assumed)).
T2 construct: Endogenous protein detected by immunoblot with anti-RARα (C-20)
T2 sequence (looked up): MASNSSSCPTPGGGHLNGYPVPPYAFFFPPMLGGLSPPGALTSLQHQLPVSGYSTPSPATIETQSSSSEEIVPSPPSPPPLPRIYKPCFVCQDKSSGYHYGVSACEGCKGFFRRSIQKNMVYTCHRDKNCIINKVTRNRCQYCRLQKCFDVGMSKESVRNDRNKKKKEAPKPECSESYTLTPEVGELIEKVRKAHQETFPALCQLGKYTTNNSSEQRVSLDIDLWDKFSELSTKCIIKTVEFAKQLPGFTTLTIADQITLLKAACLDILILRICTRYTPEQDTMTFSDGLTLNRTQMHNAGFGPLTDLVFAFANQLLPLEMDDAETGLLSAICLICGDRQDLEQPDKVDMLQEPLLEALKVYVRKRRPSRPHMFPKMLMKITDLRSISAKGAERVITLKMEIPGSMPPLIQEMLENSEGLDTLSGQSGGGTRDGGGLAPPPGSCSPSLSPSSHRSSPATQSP
Briefly: co-immunoprecipitation, immunoblot for RARα. On the technique in general: In western blotting, separated proteins are transferred to a membrane and probed.
Method: Proteins were transferred to polyvinylidine difluoride membranes (Immobilon P, Millipore) and Western blots were probed with the indicated antibodies. For TAP (co-)immunoprecipitations cells were lysed in ELB buffer (0.25 M NaCl, 0.1% NP-40, 50 mM HEPES pH 7.3) supplemented with protease inhibitors and PMSF.

Numbering of substitutions follows the chain as printed.

B1: Gal4-… (416-509) (other, not shown: large carriers; small tags and cut ends)
chain: NSISISALQSLLQHLIGLSNLTHVLYPVPLESYEDIHGTLHLERLAYLHARLREVVCELGRPSMVWLSANPCPHCGDRTFYDPEPILCPCFMPN
notes: also called box 7 mutant
Regarding B1, the binding result with VP16-RARα LBD is on record as “no binding”.

B2: TAP-PRAME-LREVV mutant protein (other)
chain: MERRRLRGSIQSRYISMSVWTSPRRLVELAGQSLLKDEALAIAALELLPRELFPPLFMAAFDGRHSQTLKAMVQAWPFTCLPLGVLMKGQHLHLETFKAVLDGLDVLLAQEVRPRRWKLQVLDLRKNSHQDFWTVWSGNRASLYSFPEPEAAQPMTKKRKVDGLSTEAEQPFIPVEVLVDLFLKEGACDELFSYLIEKVKRKKNVLRLCCKKLKIFAMPMQDIKMILKMVQLDSIEDLEVTCTWKLPTLAKFSPYLGQMINLRRLLLSHIHASSYISPEKEEQYIAQFTSQFLSLQCLQALYVDSLFFLRGRLDQLLRHVMNPLETLSITNCRLSEGDVMHLSQSPSVSQLSVLSLSGVMLTDVSPEPLQALLERASATLQDLVFDECGITDDQLLALLPSLSHCSQLTTLSFYGNSISISALQSLLQHLIGLSNLTHVLYPVPLESYEDIHGTLHLERLAYLHARLREVVCELGRPSMVWLSANPCPHCGDRTFYDPEPILCPCFMPN
notes: not shown: TAP tag
As to B2, in test [1], the binding result was “no binding”.

B3: PRAME-ΔLXXLL (other)
chain: B2 chain with L107V, L108V, L262V, L316V, L317V, L369V, L398V, L399V, L426V, L427V
notes: also called PRAME mutant in which all 7 NR boxes were mutated
As to B3, in test [1], the binding result is “no binding”.
